Measurements taken from patent US20160108118A1.

B1: scFv-phage clone 9E (scFv, part only; not given: scFv linker and domain order, part only)
scFv, part: QVQLVESGGGVVQPGRSLRLSCAASGFTFSSYGMHWVRQAPGKGLEWVAVISYDGNNKYYVDSVKGRFTISRDNSKNTLYLQMNSLRSEDTAVYYCARDSGSYLDWYFDLWGRGTLVTVSSQPPSVSVAPGKTARIACGGGNIGDKSVHWYQQKPGQAPVLVIFYDSDRPSGIPKRLSGSNSGNTATLTISRVEAGDEGDYYCQVWDSSSDRPVFGGGTKLTVLG
B2: scFv-phage clone 10D (scFv)
scFv: QVQLVQSGGGVVQPGRSLRLSCAASGFTFSSYGMHWVRQAPGKGLEWVAVISYDGSNKYYADSVKGRFTISRDNSKNTLYLQMNSLRSEDTAVYYCARDKRAAFDIWGQGKMVTVSSGLGGLGGGGSGGGGSGGSSGVGSSYELTQAPSLSVSPGQTANIICSGDNLRTKYVSWYQQKPGQSPLLVIYQDTRRPSGIPARFSGSNSGNTATLTISGTQTERESTYYCMTWDVDTTSMIFGGGTKLTVL
B3: scFv-phage clone 12D (scFv, part only; not given: scFv linker and domain order, part only)
scFv, part: QVQLVQSGGGVVQPGRSLRLSCVASAFTFSRYGMHWVRQAPGKGLEWVALISYDGSSEYYADSVKGRFNISRDNSKNTVYLQMNSLRAEDTAVYYCVKDGLAAKLGHWGQGTLVTVSSQAPSLSVSPGQTANIICSGDNLRTKYVSWYQQKPGQSPLLVIYQDTRRPSGIPARFSGSNSGNTATLTISGTQTERESTYYCMTWDVDTTSMIFGGGTKLTVLG

How the values were obtained:
[1] = target: His (control coat of Table 2); assay: phage ELISA
[2] = target: α-myc (anti-myc antibody coated as second antigen); assay: phage ELISA

Row | Binder | OD490 [1] | OD490 [2]
1 | B1 | 0.043 | 2.01
2 | B2 | – | 3.02
3 | B3 | 0.049 | 0.888
